Measured values as given in patent publication US20170313764A1 (ACADEMISCH MEDISCH CENTRUM, published 2017).

Assays:
[1] = target: T1, soluble E2-his6-sortase tag from HCV isolate H77 (genotype 1a) (Hepatitis C virus genotype 1a, strain …, UniProt P27958 384-717); experiment: SPR (IBIS MX96), antibody spotted on chip, soluble E2-his as analyte
T1 construct: also called E2-his6-ST; E2 genotype 1a

[2] = target: T2, soluble E2-his6-sortase tag from HCV isolate AMS.2b.20876551.kloon21 (genotype 2b) (Hepatitis C virus genotype 2b); experiment: as above
T2 chain: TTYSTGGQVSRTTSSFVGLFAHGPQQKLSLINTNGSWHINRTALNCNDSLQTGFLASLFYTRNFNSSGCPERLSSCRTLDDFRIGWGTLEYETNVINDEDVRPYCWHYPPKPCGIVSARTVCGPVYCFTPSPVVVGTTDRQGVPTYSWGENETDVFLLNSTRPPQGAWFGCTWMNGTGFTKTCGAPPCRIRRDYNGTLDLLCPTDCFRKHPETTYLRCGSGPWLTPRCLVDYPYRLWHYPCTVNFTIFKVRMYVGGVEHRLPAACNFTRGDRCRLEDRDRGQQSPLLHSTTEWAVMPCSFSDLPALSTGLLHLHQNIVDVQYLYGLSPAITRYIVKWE

[3] = target: E1E2 of HCV isolate UKN4.11.1 (genotype 4) (Hepatitis C virus genotype 4); experiment: cell-based or functional assay
[4] = target: E1E2 of HCV isolate AMS.3a.21071213 (genotype 3a) (Hepatitis C virus genotype 3a); experiment: cell-based or functional assay
[5] = target: E1E2 of HCV isolate AMS.1b.20877857 (genotype 1b) (Hepatitis C virus genotype 1b); experiment: cell-based or functional assay
[6] = target: E1E2 of HCV isolate AMS.2b.20876551.kloon21 (genotype 2b) (Hepatitis C virus genotype 2b); experiment: cell-based or functional assay
[7] = target: E1E2 of HCV isolate AMS.4d.20875969 (genotype 4d) (Hepatitis C virus genotype 4d); experiment: cell-based or functional assay
[8] = target: E1E2 of HCV isolate H77 with single mutation A439G (Hepatitis C virus genotype 1a, strain …, UniProt P27958 192-383; P27958 384-746); experiment: ELISA, GNA-captured E1E2 lysate; EC50 wild type / EC50 mutant
[9] = target: E1E2 of HCV isolate H77 with single mutation Y485A (Hepatitis C virus genotype 1a, strain …, UniProt P27958 192-383; P27958 384-746); experiment: as above
[10] = target: E1E2 of HCV isolate H77 with single mutation W616A (Hepatitis C virus genotype 1a, strain …, UniProt P27958 192-383; P27958 384-746); experiment: as above
[11] = target: E1E2 of HCV isolate H77 with single mutation W529A (Hepatitis C virus genotype 1a, strain …, UniProt P27958 192-383; P27958 384-746); experiment: as above
[12] = target: E1E2 of HCV isolate H77 with single mutation G436A (Hepatitis C virus genotype 1a, strain …, UniProt P27958 192-383; P27958 384-746); experiment: as above
[13] = target: E1E2 of HCV isolate H77 with single mutation Y527A (Hepatitis C virus genotype 1a, strain …, UniProt P27958 192-383; P27958 384-746); experiment: as above
[14] = target: E1E2 of HCV isolate H77 with single mutation D535A (Hepatitis C virus genotype 1a, strain …, UniProt P27958 192-383; P27958 384-746); experiment: as above
[15] = target: E1E2 of HCV isolate H77 with single mutation D698A (Hepatitis C virus genotype 1a, strain …, UniProt P27958 192-383; P27958 384-746); experiment: as above
[16] = target: E1E2 of HCV isolate H77 with single mutation T435A (Hepatitis C virus genotype 1a, strain …, UniProt P27958 192-383; P27958 384-746); experiment: as above
[17] = target: E1E2 of HCV isolate H77 with single mutation Y443A (Hepatitis C virus genotype 1a, strain …, UniProt P27958 192-383; P27958 384-746); experiment: as above
[18] = target: E1E2 of HCV isolate H77 with single mutation G530A (Hepatitis C virus genotype 1a, strain …, UniProt P27958 192-383; P27958 384-746); experiment: as above
[19] = target: E1E2 of HCV isolate H77 with single mutation S424A (Hepatitis C virus genotype 1a, strain …, UniProt P27958 192-383; P27958 384-746); experiment: as above
[20] = target: E1E2 of HCV isolate H77 with single mutation T526A (Hepatitis C virus genotype 1a, strain …, UniProt P27958 192-383; P27958 384-746); experiment: as above
[21] = target: E1E2 of HCV isolate H77 with single mutation N415A (Hepatitis C virus genotype 1a, strain …, UniProt P27958 192-383; P27958 384-746); experiment: as above
[22] = target: E1E2 of HCV isolate H77 with single mutation R657A (Hepatitis C virus genotype 1a, strain …, UniProt P27958 192-383; P27958 384-746); experiment: as above
[23] = target: E1E2 of HCV isolate H77 (genotype 1a), wild type (Hepatitis C virus genotype 1a, strain …, UniProt P27958 192-383; P27958 384-746); experiment: cell-based or functional assay
[24] = target: E1E2 of HCV isolate H77 with single mutation L413A (Hepatitis C virus genotype 1a, strain …, UniProt P27958 192-383; P27958 384-746); experiment: ELISA, GNA-captured E1E2 lysate; EC50 wild type / EC50 mutant
[25] = target: E1E2 of HCV isolate H77 with single mutation G418A (Hepatitis C virus genotype 1a, strain …, UniProt P27958 192-383; P27958 384-746); experiment: as above
[26] = target: E1E2 of HCV isolate H77 with single mutation W420A (Hepatitis C virus genotype 1a, strain …, UniProt P27958 192-383; P27958 384-746); experiment: as above
[27] = target: T3, HCV E1E2 protein in transfected 293T cells (CD81 competition assay; isolate not stated); experiment: flow cytometry competition: E1E2-transfected 293T cells pre-incubated with antibody, then CD81-LEL (mouse Fc) added and detected; blocked ligand CD81-LEL
T3 construct: also called E1E2 transfected cells

B1: AT12-011 (antibody, V domains shown)
VH: QVQLVQSGAEVKKPGSSVKVSCKASGGTFSGYGITWVRQAPGQGLEWMGTIIPVSATETYAQRLQGRVTISADEHSTTSYMEVSSLKSEDTALYYCARHDYFWGTPLDIWGQGTMVIVSS
VL: EIVLTQSPDFQSVTPKEKVTITCRASQSIGSNLHWYQQKPGQSPKLLIKYASQSFSGVPSRFSGSGSGTDFTLTINSLEAEDAATYFCHQSYNLPRTFGGGTKVEIKR
In the case of B1, the Kd [1] is reported as 0.3 nM, the Kd [2] is reported as 0.2 nM and the “IC50, HCVpp neutralization” value [3] is reported as > 50 µg/mL. The “IC90, HCVpp neutralization” value [3] was > 50 µg/mL, the “IC50, HCVpp neutralization” value [4] was > 50 µg/mL and the “IC90, HCVpp neutralization” value [4] was > 50 µg/mL. For the same binder, the “IC50, HCVpp neutralization” value [5] was 4.31 µg/mL, the “IC90, HCVpp neutralization” value [5] was > 50 µg/mL and the “IC50, HCVpp neutralization” value [6] was 27.5 µg/mL. The “IC90, HCVpp neutralization” value [6] was > 50 µg/mL, the “IC50, HCVpp neutralization” value [7] was > 50 µg/mL and the “IC90, HCVpp neutralization” value [7] was > 50 µg/mL.

B2: AT13-021 (antibody, V domains shown)
VH: QVQLVQSGAEVKKPGSSVKVSCKASGGTFNTHAFSWVRQAPGEGLEWMGGISPMSGTPNYAQKFQGRLTITADESTSTGYMELRSLTSEDTAVYYCARELIGYCTGGNCYSFGDFWGQGTLITVSS
VL: EIVMTQSPATLSVSPGERATLSCRASQSVSSHLAWYQHKPGQAPRLLISGASTRAVGVPARFSGSGSGTEFTLTISSLQSEDFAVYYCHQYNTWPRGFGQGTKVDFKR
B2 was tested, and the Kd [1] was 14.2 nM, the koff [1] was 0.00036 s⁻¹ and the Kd [2] was 2 nM. For the same binder, the koff [2] was 0.0001 s⁻¹, the “relative binding, mutant vs wild type” value [8] was 53% and the “relative binding, mutant vs wild type” value [9] was 114%. The “relative binding, mutant vs wild type” value [10] was < 10%, the “relative binding, mutant vs wild type” value [11] was 13% and the “relative binding, mutant vs wild type” value [12] was < 10%. The “relative binding, mutant vs wild type” value [13] was 21%, the “relative binding, mutant vs wild type” value [14] was < 10% and the “relative binding, mutant vs wild type” value [15] was 80%. The “relative binding, mutant vs wild type” value [16] was 21%, the “relative binding, mutant vs wild type” value [17] was 87% and the “relative binding, mutant vs wild type” value [18] was < 10%. For the same binder, the “relative binding, mutant vs wild type” value [19] was 17%, the “relative binding, mutant vs wild type” value [20] was 27% and the “relative binding, mutant vs wild type” value [21] was 119%. The “relative binding, mutant vs wild type” value [22] was 88%, the “IC50, HCVpp neutralization” value [23] was 0.3 µg/mL and the “IC90, HCVpp neutralization” value [23] was 9.98 µg/mL. The “IC50, HCVpp neutralization” value [3] was 0.94 µg/mL, the “IC90, HCVpp neutralization” value [3] was 13.9 µg/mL and the “IC50, HCVpp neutralization” value [4] was 0.25 µg/mL. The “IC90, HCVpp neutralization” value [4] was 12.3 µg/mL, the “IC50, HCVpp neutralization” value [5] was 0.09 µg/mL and the “IC90, HCVpp neutralization” value [5] was 5.67 µg/mL. For the same binder, the “IC50, HCVpp neutralization” value [6] was 0.12 µg/mL, the “IC90, HCVpp neutralization” value [6] was 8.84 µg/mL and the “IC50, HCVpp neutralization” value [7] was 0.94 µg/mL. For the same binder, the “IC90, HCVpp neutralization” value [7] was > 50 µg/mL, the “relative binding, mutant vs wild type” value [24] was 185% and the “relative binding, mutant vs wild type” value [25] was 131%. For the same binder, the “relative binding, mutant vs wild type” value [26] was 103%.

B3: AT12-009 (antibody, V domains shown)
VH: SSVRVSCKASGDTFKTHAISWVRQAPGQGLEWVGGTVRQAPGDGLELLGGFVPILAPANDAQKFQGRVTITADGSTGPVYMDLSTLTSEDTAMYYCVTSLSEPIPRSCRGGRCYSGPFDAFGVWGQGTMVTVSS
VL: ETMLTQSPVTLSVSPGERATLSCRASQSIGTNLAWYQQKPGQAPRLLIHGASTRATGVPVSFSGSGSGTEFTLTISSLQSEDFAVYYCQQYNNWPLTFGGGTKVDFKR
With B3 the Kd [2] was 2.3 nM, the koff [2] was 0.0002 s⁻¹ and the “IC50 (read off the curve)” value [27] was ~2 µg/mL. For the same binder, the “IC50, HCVpp neutralization” value [3] was 0.19 µg/mL, the “IC90, HCVpp neutralization” value [3] was 14.1 µg/mL and the “IC50, HCVpp neutralization” value [4] was 0.14 µg/mL. For the same binder, the “IC90, HCVpp neutralization” value [4] was 5.34 µg/mL, the “IC50, HCVpp neutralization” value [5] was 0.001 µg/mL and the “IC90, HCVpp neutralization” value [5] was 0.13 µg/mL. The “IC50, HCVpp neutralization” value [6] was 0.06 µg/mL, the “IC90, HCVpp neutralization” value [6] was 6.17 µg/mL and the “IC50, HCVpp neutralization” value [7] was 0.72 µg/mL. The “IC90, HCVpp neutralization” value [7] was 47.4 µg/mL.
